Data taken from publication PMC2409435 (Nature, 2007).

Molecular target: Recombinant MRE11-RAD50-NBS1 (MRN) complex (human | , UniProt P49959 1-708; Q92878 1-1312; O60934 1-754)
Experiment: co-IP

Sequence of Recombinant MRE11-RAD50-NBS1 (MRN) complex (P49959 whole entry, chain 1 of 3): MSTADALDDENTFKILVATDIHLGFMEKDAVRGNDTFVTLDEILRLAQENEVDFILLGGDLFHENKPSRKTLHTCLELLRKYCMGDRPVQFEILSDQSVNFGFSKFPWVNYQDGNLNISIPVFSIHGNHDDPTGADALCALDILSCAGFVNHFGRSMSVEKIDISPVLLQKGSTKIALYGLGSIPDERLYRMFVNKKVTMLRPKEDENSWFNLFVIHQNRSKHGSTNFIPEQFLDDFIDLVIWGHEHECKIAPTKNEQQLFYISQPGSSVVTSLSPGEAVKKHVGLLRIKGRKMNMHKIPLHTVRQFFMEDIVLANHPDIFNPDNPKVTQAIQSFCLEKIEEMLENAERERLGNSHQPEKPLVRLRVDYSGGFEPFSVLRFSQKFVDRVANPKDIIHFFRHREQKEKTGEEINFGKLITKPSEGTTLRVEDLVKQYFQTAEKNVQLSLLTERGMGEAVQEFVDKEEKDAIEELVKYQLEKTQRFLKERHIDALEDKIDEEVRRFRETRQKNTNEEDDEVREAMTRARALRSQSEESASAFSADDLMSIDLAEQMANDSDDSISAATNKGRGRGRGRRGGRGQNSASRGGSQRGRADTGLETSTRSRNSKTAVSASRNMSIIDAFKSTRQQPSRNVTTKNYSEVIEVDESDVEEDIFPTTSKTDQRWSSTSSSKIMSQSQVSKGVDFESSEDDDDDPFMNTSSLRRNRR
Sequence of Recombinant MRE11-RAD50-NBS1 (MRN) complex (Q92878 whole entry, chain 2 of 3): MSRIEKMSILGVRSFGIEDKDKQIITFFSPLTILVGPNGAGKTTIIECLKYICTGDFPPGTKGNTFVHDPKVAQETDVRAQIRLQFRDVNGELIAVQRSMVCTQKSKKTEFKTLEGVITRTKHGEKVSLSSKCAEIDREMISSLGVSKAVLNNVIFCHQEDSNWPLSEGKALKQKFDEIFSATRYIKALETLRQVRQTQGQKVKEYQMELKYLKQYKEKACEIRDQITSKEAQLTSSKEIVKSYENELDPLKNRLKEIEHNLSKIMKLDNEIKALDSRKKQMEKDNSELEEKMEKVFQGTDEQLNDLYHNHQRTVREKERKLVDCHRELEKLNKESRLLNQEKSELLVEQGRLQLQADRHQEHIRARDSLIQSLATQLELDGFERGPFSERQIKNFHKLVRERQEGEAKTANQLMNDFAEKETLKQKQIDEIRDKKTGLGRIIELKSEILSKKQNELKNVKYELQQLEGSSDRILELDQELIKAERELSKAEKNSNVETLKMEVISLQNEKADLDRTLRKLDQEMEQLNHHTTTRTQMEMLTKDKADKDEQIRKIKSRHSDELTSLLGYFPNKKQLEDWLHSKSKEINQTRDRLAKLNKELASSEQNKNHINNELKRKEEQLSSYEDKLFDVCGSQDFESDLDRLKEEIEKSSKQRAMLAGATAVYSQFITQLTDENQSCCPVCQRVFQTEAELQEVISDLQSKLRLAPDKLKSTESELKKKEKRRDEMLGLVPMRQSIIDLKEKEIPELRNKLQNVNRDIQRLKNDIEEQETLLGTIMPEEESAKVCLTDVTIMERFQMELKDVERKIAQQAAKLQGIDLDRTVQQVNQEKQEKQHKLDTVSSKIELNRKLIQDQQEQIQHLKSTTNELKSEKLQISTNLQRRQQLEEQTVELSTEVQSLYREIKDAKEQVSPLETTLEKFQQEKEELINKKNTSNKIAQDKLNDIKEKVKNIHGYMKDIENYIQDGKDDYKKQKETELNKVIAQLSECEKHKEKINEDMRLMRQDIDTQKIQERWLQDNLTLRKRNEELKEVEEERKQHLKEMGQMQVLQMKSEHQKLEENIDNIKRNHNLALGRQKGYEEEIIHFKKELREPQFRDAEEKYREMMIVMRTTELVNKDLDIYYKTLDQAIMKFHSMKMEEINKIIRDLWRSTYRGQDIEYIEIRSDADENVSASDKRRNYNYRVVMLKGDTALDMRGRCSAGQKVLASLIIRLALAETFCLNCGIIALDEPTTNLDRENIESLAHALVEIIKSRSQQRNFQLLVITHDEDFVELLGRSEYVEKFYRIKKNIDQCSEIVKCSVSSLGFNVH
Sequence of Recombinant MRE11-RAD50-NBS1 (MRN) complex (O60934 whole entry, chain 3 of 3): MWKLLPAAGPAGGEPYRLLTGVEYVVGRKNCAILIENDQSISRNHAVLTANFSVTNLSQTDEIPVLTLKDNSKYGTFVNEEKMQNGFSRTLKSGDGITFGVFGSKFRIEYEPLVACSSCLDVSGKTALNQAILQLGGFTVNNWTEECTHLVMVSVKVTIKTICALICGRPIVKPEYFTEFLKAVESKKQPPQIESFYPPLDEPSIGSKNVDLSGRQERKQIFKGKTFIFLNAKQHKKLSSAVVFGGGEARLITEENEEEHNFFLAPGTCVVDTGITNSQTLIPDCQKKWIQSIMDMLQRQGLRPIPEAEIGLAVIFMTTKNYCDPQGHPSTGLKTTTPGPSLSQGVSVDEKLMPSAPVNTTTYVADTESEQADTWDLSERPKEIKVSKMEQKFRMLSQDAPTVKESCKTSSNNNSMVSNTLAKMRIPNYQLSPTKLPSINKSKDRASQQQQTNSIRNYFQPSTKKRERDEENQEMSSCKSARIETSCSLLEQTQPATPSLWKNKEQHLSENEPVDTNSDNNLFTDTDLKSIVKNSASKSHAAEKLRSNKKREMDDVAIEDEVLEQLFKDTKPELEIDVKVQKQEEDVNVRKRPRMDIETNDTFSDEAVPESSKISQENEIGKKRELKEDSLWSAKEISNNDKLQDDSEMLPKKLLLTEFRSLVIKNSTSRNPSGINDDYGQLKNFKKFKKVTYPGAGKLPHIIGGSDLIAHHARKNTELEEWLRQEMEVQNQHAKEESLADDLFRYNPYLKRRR

B1: Recombinant FLAG-GST-CtIP-6H (natural protein, human, UniProt Q99708 1-897, looked up)
chain: MNISGSSCGSPNSADTSSDFKDLWTKLKECHDREVQGLQVKVTKLKQERILDAQRLEEFFTKNQQLREQQKVLHETIKVLEDRLRAGLCDRCAVTEEHMRKKQQEFENIRQQNLKLITELMNERNTLQEENKKLSEQLQQKIENDQQHQAAELECEEDVIPDSPITAFSFSGVNRLRRKENPHVRYIEQTHTKLEHSVCANEMRKVSKSSTHPQHNPNENEILVADTYDQSQSPMAKAHGTSSYTPDKSSFNLATVVAETLGLGVQEESETQGPMSPLGDELYHCLEGNHKKQPFEESTRNTEDSLRFSDSTSKTPPQEELPTRVSSPVFGATSSIKSGLDLNTSLSPSLLQPGKKKHLKTLPFSNTCISRLEKTRSKSEDSALFTHHSLGSEVNKIIIQSSNKQILINKNISESLGEQNRTEYGKDSNTDKHLEPLKSLGGRTSKRKKTEEESEHEVSCPQASFDKENAFPFPMDNQFSMNGDCVMDKPLDLSDRFSAIQRQEKSQGSETSKNKFRQVTLYEALKTIPKGFSSSRKASDGNCTLPKDSPGEPCSQECIILQPLNKCSPDNKPSLQIKEENAVFKIPLRPRESLETENVLDDIKSAGSHEPIKIQTRSDHGGCELASVLQLNPCRTGKIKSLQNNQDVSFENIQWSIDPGADLSQYKMDVTVIDTKDGSQSKLGGETVDMDCTLVSETVLLKMKKQEQKGEKSSNEERKMNDSLEDMFDRTTHEEYESCLADSFSQAADEEEELSTATKKLHTHGDKQDKVKQKAFVEPYFKGDERETSLQNFPHIEVVRKKEERRKLLGHTCKECEIYYADMPAEEREKKLASCSRHRFRYIPPNTPENFWEVGFPSTQTCMERGYIKEDLDPCPRPKRRQPYNAIFSPKGKEQKT
B1: binds.
